Laboratory results taken from patent publication US7262271.

Tested on: Antisera against the PAS1 peptides

## P. gingivalis Arg-specific proteinase
  Arg-specific proteolytic activity: Antisera against the PAS1 peptides inhibited both Arg- and Lys-specific proteolytic activity

## P. gingivalis Lys-specific proteinase
  Lys-specific proteolytic activity: Antisera against the PAS1 peptides inhibited both Arg- and Lys-specific proteolytic activity
